For data set [1], the system named is atopic dermatitis model mouse. Briefly: Application to atopic dermatitis model mouse. As to conditions: vs Tetrapodna without cholesterol modification. The data set is classed as in vivo.
Data set [2] concerns RAW264.7 cells. Briefly: Uptake of cholesterol-modified Tetrapodna by cells. The data set is classed as cell-based. The protocol:
In order to examine applicability of nucleic acid having a modifying group, Tetrapodna using cholesterol-modified DNA was prepared. […] Furthermore, uptake of each Tetrapodna by RAW264.7 cells was measured.

Data set [3] can be described thus: Gel formation in a living body after subcutaneous injection of sol. The data set is classed as in vivo. As to conditions: total DNA 2 mM, NaCl 5 mM, back of mouse. From the text:
The hydrogel produced in Example 1 was able to be prepared in a sol state by appropriately adjusting conditions. Therefore, the hydrogel was able to be administered in a living body by injection. […] Thus, it was confirmed that a gel is formed in a living body only by preparing the hydrogel in accordance with the present invention in a sol state and administering the hydrogel to a living body.

Data set [4] in a line: Temperature conditions for gel formation. The data set is classed as physicochemical. As to conditions: NaCl 150 mM. The procedure: Furthermore, we investigated a possibility that temperature conditions are also involved in gelation. Tetrapodna (4-18-18) (SEQ ID NOs.: 2, 4, 5 and 6), Hexapodna (4-18-18) (SEQ ID NOs.: 2, 3, 4, 7, 9 and 10) and Tetrapodna (8-16-16) (SEQ ID NOs.: 22, 23, 24 and 25) were used to examine the temperature conditions for allowing a gel be present or a sol to be present by fixing the NaCl concentration at 150 mM and changing the DNA concentration variously.

The nature of data set [5]: Release of encapsulated OVA from gel. The data set is classed as physicochemical. As to conditions: DNA 0.5 mM, OVA 2.5 μg/μl. The procedure: By controlling the nature and salt concentration of protruding ends of Tetrapodna, the change of the releasing rate of an encapsulated compound in a gel was examined. Specifically, Tetrapodna (4-18-18) (SEQ ID NOs.: 2, 4, 5 and 6) including a cohesive protruding end and Tetrapodna (4-18-18) (SEQ ID NOs.: 58, 59, 60 and 61) as a control including a non-cohesive protruding end were used. In an aqueous solution of Tetrapodna which had been prepared such that the DNA concentration was 0.5 mM, the NaCl concentration was adjusted to 5 mM or 150 mM. When the NaCl concentration was increased, egg albumin (OVA, concentration of 2.5 μg/μl) was added as an encapsulated substance to cause gelation, and then the percentage of OVA released from the gel with the passage of time was measured.

Another data set relates to splenocytes. The experiment in a line: IFN-γ production by splenocytes after immunization with OVA in gel. The data set is classed as in vivo, mouse. As to conditions: 100 μg OVA + 100 μg DNA, spleen on Day 14, vs only OVA.
A short description of data set [6]: Formation of hydrogel from nucleic acid units without ligase. The data set is classed as physicochemical. As to conditions: without DNA ligase. The protocol: A NaCl solution was added to an ODN solution (polypodna) such that the final Na^+ concentration was 5 to 150 mM. The gel formation and the gel strength were measured by a gel strength analyzer (gel strength meter, Nakayamadenki Co., Ltd, Osaka).
A structure to be a hydrogel (a nucleic acid monomer and an estimated nucleic acid unit) in conditions at room temperature, at 5 mM to 150 mM sodium chloride concentration (150 mM is substantially physiological concentration), and not containing a DNA ligase was elucidated. […] For convenience, nucleic acid units estimated to be formed according to the number of nucleic acid monomers capable of constituting the nucleic acid unit were represented by xxxpodna (xxxpod-like structure forming nucleic acid, xxx is substituted by tri (3), tetra (4) and the like, according to the number of nucleic acid monomers capable of constituting the nucleic acid unit). In Table 2 described below, xxxpodna is an estimated nucleic acid unit, and each of xxx-Y-N is a nucleic acid monomer that can be a constituent element of the nucleic acid unit (xxxpodna) which is mentioned above thereof. When the descriptions of Ys are different from each other, different nucleic acid units can be formed. N denotes numbering of nucleic acid monomers constituting each of the estimated nucleic acid units.
Unlike (1-1) described above, gelation can be controlled by using a nucleic acid monomer including cohesive protruding ends which are not attached to themselves (that is, not palindrome sequence).

Data set [7] has as its system mouse dendritic cell DC2.4. The experiment in a line: Stimulation of dendritic cells by gel. It counts as cell-based. To be noted: gel brought into contact with DC2.4.
The nature of data set [8]: Evaluation of gelation at various DNA concentrations and NaCl concentrations. Also on record: key: ◯: the mark “∘” is given to cases in which gelation was observed; X: the mark “x” is given to cases of a solution state (sol-state). It counts as physicochemical. The procedure: […] The gel formation and the gel strength were measured by a gel strength analyzer (gel strength meter, Nakayamadenki Co., Ltd, Osaka).
Specifically, by changing the DNA concentrations of an aqueous solution of Tripodona (4-18-18) (X=4) (SEQ ID NOs.: 1, 2 and 3), Tetrapodna (4-18-18) (X=4) (SEQ ID NOs.: 2, 4, 5 and 6), Hexapodna (4-18-18) (X=4) (SEQ ID NOs.: 2, 3, 4, 7, 9 and 10) and Tetrapodna (8-16-16) (X=8) (SEQ ID NOs.: 22, 23, 24 and 25) as shown in the lines of Table 4, and by changing the NaCl concentration as shown in the rows of Table 4, whether or not a gel is formed at various DNA concentrations and NaCl concentrations was evaluated. The results are shown such that the mark “∘” is given to cases in which gelation was observed, and the mark “x” is given to cases of a solution state (sol-state).

The nature of data set [9]: Percentage of remaining gels with the passage of time. The data set is classed as physicochemical. To be noted: DNA 0.5 mM. The protocol:
Gels were formed by adjusting the NaCl concentration at 150 mM in an aqueous solution containing Tetrapodna (12-14-14) (SEQ ID NOs.: 30, 31, 32 and 33) at a DNA concentration of 0.1 mM, 0.25 mM or 0.5 mM, and the percentage of the remaining gels was measured with the passage of time. The results are shown in a graph in the left upper side of FIG. 17.
Gels were formed in conditions at a certain DNA concentration (0.5 mM) and a certain NaCl concentration (150 mM), and the percentage of the remaining gels was measured with the passage of time by using Tetrapodna (respectively, SEQ ID NOs.: 2, 4, 5 and 6, SEQ ID NOs.: 18, 19, 20 and 21, SEQ ID NOs.: 22, 23, 24 and 25, SEQ ID NOs.: 26, 27, 28 and 29, as well as SEQ ID NOs.: 30, 31, 32 and 33) having various lengths of the cohesive protruding end (4, 6, 8, 10 or 12 bases). The results are shown in a graph in the left lower side of FIG. 17. […] When 12 hours had passed, the percentage of the remaining gels became about 50%.
Gels were formed by variously changing the NaCl concentrations (5 mM, 50 mM, 100 mM or 150 mM) of an aqueous solution containing Tetrapodna (12-14-14) (SEQ ID NOs.: 30, 31, 32 and 33) at a DNA concentration of 0.5 mM, and the percentage of the remaining gels was measured with the passage of time. The results are shown in a graph in the right upper side of FIG. 17. […] At a low salt concentration (5 mM), almost all the formed gels became in a sol state when about 6 hours had passed. When the salt concentration was increased to 50 mM, solation tendency was weakened, a change from a gel into a sol occurred moderately (about 40% when 12 hours had passed).
The percentage of the remaining gels was measured with the passage of time in the same manner as in (8-3) except that Tetrapodna (4-18-18) (SEQ ID NOs.: 2, 4, 5 and 6) was used instead of Tetrapodna (12-14-14) (SEQ ID NOs.: 30, 31, 32 and 33). The results are shown in a graph in the right lower side of FIG. 17. […] In (8-3), Tetrapodna (12-14-14) (the length of the cohesive protruding end is 12 bases) was used. In (8-4), Tetrapodna (4-18-18) (the length of the cohesive protruding end is 4 bases) was used.

Data set [10] relates to RAW264.7 cells. The experiment in a line: Release of TNF-α from RAW264.7 cells (ELISA). It counts as cell-based, murine. To be noted: 0.5, 1 or 2 μg/ml, 8 hours. The procedure:
In a RPMI1640 medium to which 10% heat inactivated FBS, 0.15% sodium bicarbonate, 100 units/ml penicillin, […] streptomycin and 2 mML-glutamine were added, murine macrophage-like RAW264.7 cells were proliferated in humidified air containing 5% CO2 at 37° C. Subsequently, cells were seeded on a 24-well or 96-well culture plate at a density of 5×10^5 cells/well, and cultured for 24 hours before use.
The RAW264.7 cells were seeded on a 24-well plate at a density of 2.5×10^5 cells/well, and incubated for 24 hours before treatment. Then, ssDNA, dsDNA, or several kinds of polypodnas diluted in 0.5 ml of Opti-MEM were added to the cells at a final concentration of 0.5, 1 or 2 μg/ml. The cells were incubated for 8 hours, the supernatant was recovered and stored at −70° C. before use. The concentrations of TNF-α and IL-6 in the supernatant were measured by Enzyme-Linked Immunosorbent Assay (ELISA) using an OptEIA™ set (Pharmingen, San Diego, Calif., USA).
The same experiment as in Example 22 was carried out except that each poolypodna preparation was prepared in the same manner as in Example 1 by using the sequences in Table 1. However, the added DNA was equal amount in each case.
(In general: An ELISA detects its analyte on a solid surface through an enzyme-linked reagent.)

Data set [11] in a line: Melting temperature (Tm) from melting curve, absorbance at 260 nm. It counts as physicochemical. To be noted: sodium concentration of 5 mM. The procedure:
Each DNA preparation was prepared in the same manner as in Example 1 by using the sequences in Table 1. The absorbance of polypodna or other DNA preparations at 260 nm was measured by using a Shimadzu UV-1600 PC spectrometer (Kyoto, Japan) equipped with a TMSPC-8 temperature controller 18. The melting temperature (Tm) was obtained from the melting curve at the sodium concentration of 5 mM in each preparation.

B1: Chol-CpG DNA: Tetrapodna (SEQ ID NOs.: 2, 4, 5 and 6) which contains a cholesterol-modified nucleic acid monomer and a CpG motif (conjugate)
DNA 1: ACGTTCGACAGCGTCAACGTGAAACGTGAAGCGTCTGCGA
DNA 2: ACGTTCGCTGACGTTGCAGACATCACGTTGACGCTGTCGA
DNA 3: ACGTTCGCAGACGCTTCACGTTGCAGACAGACGTTGACGA
DNA 4: ACGTTCGTCAACGTCTGTCTGCTGTCTGCAACGTCAGCGA
modifications: DNA, phosphodiester; one monomer cholesterol-modified, strand and position not given here
Take B1: in data set [1] (applied to skin), the tissue transferability result is given as “increased”. In addition, the skin inflammation entry in data set [1] was “better suppressed”. Also, the “uptake by RAW264.7 cells” value in the data set with RAW264.7 cells [2] was “incorporated into RAW264.7 cells better than Tetrapodna as a control which does not have cholesterol modification”.

B2: Tetrapodna(4-18-18): four ODNs, SEQ ID NOs.: 2, 4, 5 and 6, 4-base cohesive protruding end, contains CpG motif (nucleic acid)
DNA 1: ACGTTCGACAGCGTCAACGTGAAACGTGAAGCGTCTGCGA
DNA 2: ACGTTCGCTGACGTTGCAGACATCACGTTGACGCTGTCGA
DNA 3: ACGTTCGCAGACGCTTCACGTTGCAGACAGACGTTGACGA
DNA 4: ACGTTCGTCAACGTCTGTCTGCTGTCTGCAACGTCAGCGA
modifications: unmodified DNA
Consider B2, for which the “gel formation in a living body” value in data set [3] is “gelation occurred in a living body after administration”. The figures for the “temperature at which gel is present” value in data set [4] (DNA concentration 0.4-0.5 mM) and in data set [4] (DNA concentration 0.6-0.8 mM) were “gel at 45 °C” and “gel at 55 °C”, respectively. Also, the “temperature at which sol is present” value was “sol at 55 °C” in data set [4] (DNA concentration 0.4-0.5 mM) and “sol at 65 °C” in [4] (DNA concentration 0.6-0.8 mM). Moreover, in data set [5] (NaCl 5 mM), the “release of OVA from the gel” value is given as “all OVA was released for a short time”. In addition, the “percentage of OVA released” value in [5] (NaCl 150 mM, 24 hours) is on record as “about 60%”. Besides, in the data set on splenocytes, the “production of IFN-γ by splenocytes stimulated with OVA” value is given as “remarkable increase in production amount of IFN-γ”. The gel formation result in [6] is recorded as “gels can be prepared”. Moreover, in data set [7], the “immunological stimulation of dendritic cell” value is “significantly immunologically stimulated a mouse dendritic cell”. Moreover, the gelation entry is recorded as “◯” in data set [8] (Na+ 2 mM, DNA 0.8 mM); “X” in data set [8] (Na+ 20 mM, DNA 0.6 mM); “X” in [8] (Na+ 20 mM, DNA 0.7 mM); “◯” in data set [8] (Na+ 50 mM, DNA 0.6 mM); “◯” in [8] (Na+ 50 mM, DNA 0.7 mM); “X” in data set [8] (Na+ 100 mM, DNA 0.5 mM). Also, the gelation result in data set [8] (Na+ 150 mM, DNA 0.4 mM) is given as “X”; in [8] (Na+ 150 mM, DNA 0.5 mM), “◯”. Also, the “percentage of the remaining gels with the passage of time” value in [9] (NaCl 150 mM) is “a gel became a sol with the passage of time”. Further, in [9] (NaCl 150 mM, 12 hours), the “percentage of the remaining gels” value is given as “about 50%”. Further, in [9] (NaCl 5, 50, 100 or 150 mM), the “percentage of the remaining gels, dependence on salt concentration” value was “as the salt concentration is higher, it tends to be present not in a sol but in a gel”.

B3: dsDNA36: double strand of dsDNA36-1 and dsDNA36-2, SEQ ID Nos. 108 and 109 (nucleic acid)
chain 1: TCGCTGACGTTGCAGACATCACGTTGACGCTGTCGA
chain 2: TCGACAGCGTCAACGTGATGTCTGCAACGTCAGCGA
modifications: unmodified DNA
Take B3: the TNF-α release result with RAW264.7 cells [10] is reported as “the TNF-α release hardly occurred”. Further, the Tm in data set [11] worked out at 66.5 °C.
